Results: publication PMC9496473, “Generation and Validation of an Anti-Human PANK3 Mouse Monoclonal Antibody” (Biomolecules, 2022)

Target: the molecule itself
Test: SEC; Ni-NTA eluate of His-PANK3 further subjected to size-exclusion gel chromatography; all purification steps at 4 °C

B1: His-tagged recombinant human PANK3 protein (residues Pro12 to Asn368) (enzyme, UniProt Q9H999 12-368, looked up)
chain: PWFGMDIGGTLVKLSYFEPIDITAEEEQEEVESLKSIRKYLTSNVAYGSTGIRDVHLELKDLTLFGRRGNLHFIRFPTQDLPTFIQMGRDKNFSTLQTVLCATGGGAYKFEKDFRTIGNLHLHKLDELDCLVKGLLYIDSVSFNGQAECYYFANASEPERCQKMPFNLDDPYPLLVVNIGSGVSILAVHSKDNYKRVTGTSLGGGTFLGLCSLLTGCESFEEALEMASKGDSTQADKLVRDIYGGDYERFGLPGWAVASSFGNMIYKEKRESVSKEDLARATLVTITNNIGSVARMCAVNEKINRVVFVGNFLRVNTLSMKLLAYALDYWSKGQLKALFLEHEGYFGAVGALLGLPN
notes: Pantothenate kinase 3 (PANK3), human, residues Pro12 to Asn368, from a pET28a plasmid bought from Addgene (25518); also called His-PANK3; recombinant PANK3; source: E. coli BL21 (DE3) and E. coli Rosetta2 (DE3), purified (Ni-NTA, size-exclusion chromatography); not shown: His6, N-terminal, kept
- stoichiometry N: 2
